From patent publication US20230138047A1, “ANTI-CLAUDIN-1 MONOCLONAL ANTIBODIES FOR THE PREVENTION AND TREATMENT OF FIBROTIC DISEASES” (Université de Strasbourg, priority 2019, published 2023)

Key:
[1] = test system: Adriamycin-induced nephropathy; assay: Adriamycin-induced nephropathy model; type: in vivo, BALB/c mice; settings: 250 μg/mouse i.p. twice weekly, 27 days; versus control group and valproic acid group
Description: The Adriamycin-induced nephropathy (ADR) model is a well-characterized disease model for chronic kidney disease and mirrors human kidney disease caused by primary focal segmental glomerulosclerosis (FSGS). The Adriamycin-induced nephropathy is a mouse model the mimics human FSGS (Focal Segmental Glomerulosclerosis). An efficacy study was performed at SMC lab (Tokyo, Japan) in accordance with local standards of ethics and animal care. Induction of Adriamycin-induced nephropathy model started on Day 0, when mice were intravenously administered adriamycin (doxorubicin hydrochloride, Wako Pure Chemical Industries, Ltd., Japan) in 0.9% saline at a dose of 13 mg/kg, in a volume of 10 mL/kg.
Groups of eight Adriamycin-induced nephropathic male BALB/c mice were administered either vehicle [saline], anti-CLDNA 1 mAb H3L3 (250 μg/mouse, twice weekly) intraperitoneally, or VPA (=valproic acid, provided at 0.4% in the drinking water) as a positive control for 27 days. Serum creatinine and BUN (blood urea nitrogen) was measured by FUJI DRI-CHEM 7000 (Fujifilm Corporation, Japan).

[2] = target: T1, CLDN1 on HREpic (PECs model) (Homo sapiens, UniProt O95832); assay: Flow cytometry binding on Human Renal Epithelial Cells (HREpic); settings: 10 μg/mL, 24 hours after TNFα 10 ng/mL
T1 construct: Human Renal Epithelial Cells (HREpic), which are primary cell isolated from human kidney; host or cells: HREpic (Human Renal Epithelial Cells), TNFα-treated
T1 sequence (O95832 1-211): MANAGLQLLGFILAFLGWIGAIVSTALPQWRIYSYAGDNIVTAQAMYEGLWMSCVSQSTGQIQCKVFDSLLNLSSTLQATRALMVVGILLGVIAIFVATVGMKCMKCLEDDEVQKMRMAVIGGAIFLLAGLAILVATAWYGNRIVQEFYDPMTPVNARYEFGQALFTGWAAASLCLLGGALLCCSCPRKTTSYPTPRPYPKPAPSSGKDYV
Description: (§1) Cells. Human Renal Epithelial Cells (HREpic) were purchased from ScienCell Research Laboratories and grown in Epithelial Cell Medium according to manufacturer's instructions.
Flow cytometry. H3L3 binding and expression of human CLDN1 in HREpic was analyzed by flow cytometry 24 hours after TNFα treatment (10 ng/mL). Briefly, 200,000 cells per conditions were stained using H3L3 (10 μg/mL) or Mota (10 μg/mL) used as negative control. Primary antibodies were detected using an Alexa fluor 647-conjugated human-specific secondary antibody. Data were acquired using Cytoflex B2R2V0 (Beckman Coulter) and analyzed using CytExpert 2.1 and FlowJo v10. CLDN1 expression is shown as the difference of the mean fluorescence intensities of cells stained with H3L3 and cells stained with Mota.

[3] = target: T2, CLDN1 expressed on RPTEC/TERT1 cells (Homo sapiens, UniProt O95832); assay: Flow cytometry binding study on RPTEC/TERT1 kidney cells
T2 construct: endogenous in cells; host or cells: RPTEC/TERT1
T2 sequence (O95832 1-211): T1 sequence (O95832 1-211)
Description: (§2) Cell Lines. The kidney cancer cell line RPTEC/TERT1 and lung cancer cell line A549, both originally from ATCC, were obtained from IGBMC in a collaboration with Dr. Irwin Davidson and Dr. Izabella Sumara, respectively. Both cell lines were cultured according to provider's instructions: the RPTEC/TERT1 kidney cancer cells were grown in ATCC-formulated DMEM:F12 Medium supplemented with hTERT RPTEC Growth Kit and 0.1 mg/mL G418. The A549 lung cancer cells were grown in ATCC-formulated F-12K Medium supplemented with 10% fetal bovine serum.
(§3) Binding Studies. Cells were de-attached using a solution of EDTA (4 mM) and re-suspended in PBS containing 1% FBS at 4° C. Then, 150,000 cells were incubated with increasing concentrations of the humanized H3L3 CLDN1-specific mAb (see WO/2017/162678) and the binding signals were read by flow cytometry after incubation with PE-labelled anti-human using a dilution of 1:100 and analyzed with Cytoflex and FlowJo V10. Two washes with PBS containing 1% FBS were performed after every antibody incubation. A binding curve for each cell line was built using the PE median fluorescence intensity (MFI) and the Kd of the interaction was calculated by applying the Michaelis-Menten mathematical model in R 3.5.1.

[4] = target: T3, CLDN1 expressed on A549 cells (Homo sapiens, UniProt O95832); assay: Flow cytometry binding study on A549 lung cells; parameters: unit not given here
T3 construct: endogenous in cells; host or cells: A549
T3 sequence (O95832 1-211): T1 sequence (O95832 1-211)
Description: as §2, §3

[5] = test system: Human Renal Epithelial Cells (HREpic); assay: HREpic 3D-culture proliferation/viability (ATP quantification); type: cell-based; settings: TNFα 10 ng/mL, 10 μg/mL antibody, 6 days, preliminary data
Description: as §1
H3L3 Treatment. For 2D-culture, cells were seeded in 24-well plates coated with Poly-L-Lysine at a cell density of 5.10^4 cells/well. After 24 hours, the cells were treated with TNFα 10 ng/mL and Mota (10 μg/mL) or H3L3 (10 μg/mL). After 3 days, the cells were again treated with TNFα and antibody for 3 more days. After 6 days of treatment in total, the cells were lysed to measure gene expression by qRT-PCR. For 3D-culture, cells were seeded in 96-well ultra-low attachment plates (Corning, Sigma Aldrich, France) at a cell density of 5×10^3 cells/well. The same treatment as described above was applied for 6 days. Cell viability was assessed by ATP quantification using CellTitreGlo (Promega) according to manufacturer's instructions.
Statistics. Data are presented as the mean±s.d. and were analyzed by the unpaired Student's t-test or the two-tailed Mann-Whitney test as indicated after determination of distribution by the Shapiro-Wilk normality test. All experiments were performed at least in triplicates for 2D-culture and quadruplicates for 3D-culture. Data are considered as significant at p<0.05. Statistical analyzes for in vitro experiments were performed with GraphPad Prism 6 software.

TGF-β signalling = assay: TGF-β signaling reporter assay in A549 cells; type: cell-based; settings: 50 μg/mL for 3 hours, TGF-β 10 ng/mL
Description: TGF-β Signaling Reporter Assay. A549 cells were transfected with TGF-β signalling reporter plasmid pGLA4.48[luc2P/SBE/Hygro] (Promega) using Fugene according to the manufacturer's instructions. Following transfection, the cells were supplemented with fresh medium containing control or CLDN1-specific mAb (50 μg/mL) for 3 hours at 37° C. Fresh medium was supplemented to the cells containing TGF-β (10 ng/mL) (Sigma) for 3 hours at 37° C. The plate was incubated for 15 minutes at room temperature followed by addition of ONE-Glo substrate (Promega) for 3 minutes at room temperature. Luminescence of the supernatants was read using a Berthold microplate reader.

B1: H3L3: humanized anti-Claudin-1 monoclonal antibody, two VH of SEQ ID NO: 3 and two VL of SEQ ID NO: 6 (antibody, V domains shown)
VH: QVQLVESGGGVVQPGRSLRLSCLGSGFSFSSYGMNWVRQAPGKGLEWVASISPSGSYFYYADSVKGRFTISRDNSKNTLYLQMTSLRAEDTAIYYCARLPGFNPPFDHWGQGTLVTVSS
VL: DIQMTQSPSSLSASVGDRVTITCKASQNVGGNVDWYQWKPGKAPKLLIYGASNRYTGVPDRFRGSGSGTDFTLTISSLQPEDVATYYCLQYKNNPWTFGGGTKVEIK
modifications: humanized variable heavy chain H3; humanized variable light chain L3
For B1, which “serum BUN” value [1] is on record?
Its value is “non-significant but pronounced reduction”.

And the serum creatinine [1]?
Its serum creatinine is “non-significant but pronounced reduction”.

What about the “binding to PECs CLDN1” value [2] of the same molecule?
The value was “binds to PECs CLDN1”.

What about the “concentration saturating the epitope” value [3] of the same molecule?
The value was 50 µg/mL.

And the “concentration saturating the epitope” value [4]?
The value was 20.

And the cell proliferation/viability [5]?
Its cell proliferation/viability is “slight decrease”.

What about the TGF-β reporter activity (TGF-β signalling) of the same molecule?
Its TGF-β reporter activity is “significant reduction”.
